# Paper PMC8224933, “Plasticity of seven-transmembrane-helix receptor heteromers in human vascular smooth muscle cells” (PLoS ONE, 2021)
# B1: α1A-adrenoceptor (receptor, human (endogenous in hVSMCs), UniProt P35348 1-466, looked up)
# chain: MVFLSGNASDSSNCTQPPAPVNISKAILLGVILGGLILFGVLGNILVILSVACHRHLHSVTHYYIVNLAVADLLLTSTVLPFSAIFEVLGYWAFGRVFCNIWAAVDVLCCTASIMGLCIISIDRYIGVSYPLRYPTIVTQRRGLMALLCVWALSLVISIGPLFGWRQPAPEDETICQINEEPGYVLFSALGSFYLPLAIILVMYCRVYVVAKRESRGLKSGLKTDKSDSEQVTLRIHRKNAPAGGSGMASAKTKTHFSVRLLKFSREKKAAKTLGIVVGCFVLCWLPFFLVMPIGSFFPDFKPSETVFKIVFWLGYLNSCINPIIYPCSSQEFKKAFQNVLRIQCLCRKQSSKHALGYTLHPPSQAVEGQHKDMVRIPVGSRETFYRISKTDGVCEWKFFSSMPRGSARITVSKDQSSCTTARVRSKSFLQVCCCVGPSTPSLDKNHQVPTIKVHTISLSENGEEV
# notes: α1A-adrenoceptor, endogenous in human vascular smooth muscle cells; also called α1A-AR; source: endogenous, hVSMCs (primary aortic smooth muscle cells, ATCC PCS-100-012), fixed cells
# B2: α1B-adrenoceptor (receptor, human (endogenous in hVSMCs), UniProt P35368 1-520, looked up)
# chain: MNPDLDTGHNTSAPAHWGELKNANFTGPNQTSSNSTLPQLDITRAISVGLVLGAFILFAIVGNILVILSVACNRHLRTPTNYFIVNLAMADLLLSFTVLPFSAALEVLGYWVLGRIFCDIWAAVDVLCCTASILSLCAISIDRYIGVRYSLQYPTLVTRRKAILALLSVWVLSTVISIGPLLGWKEPAPNDDKECGVTEEPFYALFSSLGSFYIPLAVILVMYCRVYIVAKRTTKNLEAGVMKEMSNSKELTLRIHSKNFHEDTLSSTKAKGHNPRSSIAVKLFKFSREKKAAKTLGIVVGMFILCWLPFFIALPLGSLFSTLKPPDAVFKVVFWLGYFNSCLNPIIYPCSSKEFKRAFVRILGCQCRGRGRRRRRRRRRLGGCAYTYRPWTRGGSLERSQSRKDSLDDSGSCLSGSQRTLPSASPSPGYLGRGAPPPVELCAFPEWKAPGALLSLPAPEPPGRRGRHDSGPLFTFKLLTEPESPGTDGGASNGGCEAAADVANGQPGFKSNMPLAPGQF
# notes: α1B-adrenoceptor, endogenous in human vascular smooth muscle cells; also called α1B-AR; source: endogenous, hVSMCs (primary aortic smooth muscle cells, ATCC PCS-100-012), fixed cells
# Assays:
# Assay in all cases: proximity ligation; Duolink II PLA on hVSMCs fixed with 4% paraformaldehyde; two primary antibodies from differing species (1:500, 37°C, 105 min); control: omission of one primary antibody; PLA signals per cell counted; cells untreated or incubated 72 h with non-targeting, CXCR4, ACKR3 or AVPR1A siRNA
# Details in all cases: partners not purified
# α1B-adrenoceptor = molecular target: B2
# α1A-adrenoceptor = molecular target: B1
# α1D-adrenoceptor = molecular target: T1, α1D-adrenoceptor (human (endogenous in hVSMCs), UniProt P25100 1-572)
# T1 construct: α1D-adrenoceptor, endogenous in human vascular smooth muscle cells; also called α1D-AR; source: endogenous, hVSMCs (primary aortic smooth muscle cells, ATCC PCS-100-012), fixed cells
# T1 sequence (looked up): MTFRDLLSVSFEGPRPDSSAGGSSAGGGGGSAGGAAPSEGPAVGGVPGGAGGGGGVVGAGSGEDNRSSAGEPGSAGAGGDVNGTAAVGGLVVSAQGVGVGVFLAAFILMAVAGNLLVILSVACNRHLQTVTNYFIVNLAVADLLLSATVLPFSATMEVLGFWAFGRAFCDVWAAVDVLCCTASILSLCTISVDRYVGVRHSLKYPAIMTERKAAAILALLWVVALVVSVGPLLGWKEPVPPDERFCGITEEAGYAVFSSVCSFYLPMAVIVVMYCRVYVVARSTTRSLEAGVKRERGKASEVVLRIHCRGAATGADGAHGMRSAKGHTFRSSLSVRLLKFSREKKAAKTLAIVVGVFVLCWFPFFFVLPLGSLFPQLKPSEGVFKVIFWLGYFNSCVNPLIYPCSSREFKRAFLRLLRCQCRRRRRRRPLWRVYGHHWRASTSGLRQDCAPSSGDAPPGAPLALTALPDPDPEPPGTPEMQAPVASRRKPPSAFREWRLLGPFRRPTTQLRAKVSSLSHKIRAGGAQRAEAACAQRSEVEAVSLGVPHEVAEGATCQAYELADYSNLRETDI
Binder,"PLA signals after AVPR1A siRNA, % of NT siRNA (α1B-adrenoceptor) [%]","PLA signals after AVPR1A siRNA, % of NT siRNA (α1A-adrenoceptor) [%]","PLA signals after AVPR1A siRNA, % of NT siRNA (α1D-adrenoceptor) [%]"
B1,101,,
"chemokine (C-X-C motif) receptor 4 (receptor, human (endogenous in hVSMCs), UniProt P61073 1-352, looked up, chemokine (C-X-C motif) receptor 4 (CXCR4), endogenous in human vascular smooth muscle cells; also called CXCR4; source: endogenous, hVSMCs (primary aortic smooth muscle cells, ATCC PCS-100-012), fixed cells) MEGISIYTSDNYTEEMGSGDYDSMKEPCFREENANFNKIFLPTIYSIIFLTGIVGNGLVILVMGYQKKLRSMTDKYRLHLSVADLLFVITLPFWAVDAVANWYFGNFLCKAVHVIYTVNLYSSVLILAFISLDRYLAIVHATNSQRPRKLLAEKVVYVGVWIPALLLTIPDFIFANVSEADDRYICDRFYPNDLWVVVFQFQHIMVGLILPGIVILSCYCIIISKLSHSKGHQKRKALKTTVILILAFFACWLPYYIGISIDSFILLEIIKQGCEFENTVHKWISITEALAFFHCCLNPILYAFLGAKFKTSAQHALTSVSRGSSLKILSKGKRGGHSSVSTESESSSFHSS",72,91,
B2,,,141
